“Also recorded” adds a separate entry of the source.
Tests used:
TrkC = TrkC (Homo sapiens, UniProt Q16288); experiment: NGF^SNAP binding to Trk expressing cells
TrkB = TrkB (Homo sapiens, UniProt Q16620); experiment: NGF^SNAP binding to Trk expressing cells
pain signaling (TrkA) = experiment: Mechanical hypersensitivity after injection of the NGF ligand into the paw; type: in vivo, mouse; conditions: injected into the paw of mice
[1] = target: T1, native TrkB receptors in DRG neurons (Mus musculus, UniProt P15209); experiment: BDNF^SNAP Qdot 655 labelling of dissociated DRG; type: binding; conditions: conjugated to Qdot 655; dissociated DRG from TrkBCreERT2::Rosa26RFP mice
T1 construct: whether BDNF^SNAP would recognize native TrkB receptors in DRG neurons; endogenous in cells; host or cells: dissociated dorsal root ganglion neurons from TrkBCreERT2::Rosa26RFP mice
T1 sequence (P15209 32-821): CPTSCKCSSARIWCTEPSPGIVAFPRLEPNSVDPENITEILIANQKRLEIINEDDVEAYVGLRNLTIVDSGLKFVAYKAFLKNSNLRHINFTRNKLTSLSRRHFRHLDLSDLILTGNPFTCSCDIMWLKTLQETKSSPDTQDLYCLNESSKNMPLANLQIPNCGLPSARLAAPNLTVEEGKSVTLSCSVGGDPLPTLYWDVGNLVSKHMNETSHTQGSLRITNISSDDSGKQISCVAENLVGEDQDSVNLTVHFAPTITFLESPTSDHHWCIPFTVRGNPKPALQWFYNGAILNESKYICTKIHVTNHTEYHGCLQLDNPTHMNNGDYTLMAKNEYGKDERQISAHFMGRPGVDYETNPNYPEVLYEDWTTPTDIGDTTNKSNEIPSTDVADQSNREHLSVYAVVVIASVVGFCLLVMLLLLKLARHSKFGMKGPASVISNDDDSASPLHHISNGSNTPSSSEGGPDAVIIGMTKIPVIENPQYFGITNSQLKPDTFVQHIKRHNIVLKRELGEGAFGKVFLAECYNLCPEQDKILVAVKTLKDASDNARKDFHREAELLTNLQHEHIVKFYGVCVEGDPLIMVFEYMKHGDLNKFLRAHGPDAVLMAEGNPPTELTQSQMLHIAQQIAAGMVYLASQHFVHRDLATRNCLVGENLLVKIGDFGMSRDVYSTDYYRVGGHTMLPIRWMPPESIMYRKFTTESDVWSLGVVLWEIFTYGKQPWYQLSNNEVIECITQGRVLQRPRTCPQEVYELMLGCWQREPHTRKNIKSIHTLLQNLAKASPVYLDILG
Excerpt: The inventors further tested whether BDNF^SNAP would recognize native TrkB receptors in DRG neurons.

TrkA/p75 = target: T2, TrkA/p75 (Homo sapiens, UniProt P04629); experiment: BDNF^SNAP labelling of transfected HEK293T cells; type: binding; conditions: labelled with SNAP-Surface647
T2 construct: expressed in transfected cells; host or cells: HEK293T
T2 sequence (P04629 33-796, species assumed): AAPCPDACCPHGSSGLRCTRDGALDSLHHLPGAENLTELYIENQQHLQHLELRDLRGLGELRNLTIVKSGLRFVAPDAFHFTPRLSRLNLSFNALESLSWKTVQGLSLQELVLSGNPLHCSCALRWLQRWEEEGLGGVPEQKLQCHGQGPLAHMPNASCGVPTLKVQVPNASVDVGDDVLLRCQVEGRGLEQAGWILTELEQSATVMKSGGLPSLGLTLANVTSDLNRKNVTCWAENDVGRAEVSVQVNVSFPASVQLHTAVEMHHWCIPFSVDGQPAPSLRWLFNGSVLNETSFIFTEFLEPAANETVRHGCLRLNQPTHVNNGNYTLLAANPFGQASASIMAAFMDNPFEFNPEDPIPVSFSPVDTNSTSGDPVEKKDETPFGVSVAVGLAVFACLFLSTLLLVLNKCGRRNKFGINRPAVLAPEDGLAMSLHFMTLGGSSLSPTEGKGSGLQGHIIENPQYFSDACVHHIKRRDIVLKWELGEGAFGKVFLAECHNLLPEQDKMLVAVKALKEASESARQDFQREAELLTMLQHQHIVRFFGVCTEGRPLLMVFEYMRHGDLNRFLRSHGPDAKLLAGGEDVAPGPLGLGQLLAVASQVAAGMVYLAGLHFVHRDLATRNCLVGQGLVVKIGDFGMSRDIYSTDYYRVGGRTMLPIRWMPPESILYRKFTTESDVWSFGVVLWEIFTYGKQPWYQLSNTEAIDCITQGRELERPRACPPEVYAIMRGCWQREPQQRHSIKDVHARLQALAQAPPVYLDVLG
Excerpt: (§1) In light of the clinical importance of mechanical allodynia in neuropathic pain patients, it was sought to develop a pharmacological strategy to exploit the striking selectivity of TrkB to the peripheral neurons which provoke this pain state. It was reasoned that BDNF, the ligand for TrkB, may give access to these neurons and allow for their manipulation in wildtype, non-transgenic animals. To this end the inventors produced a recombinant BDNF protein with a SNAP-tag fused to its C-terminus that would enable its chemical derivatization. BDNF^SNAP was labelled in vitro with fluorescent SNAP-Surface647 substrate and applied to HEK293T cells expressing neurotrophin receptors.

TrkB/p75 = target: T3, TrkB/p75 (Homo sapiens, UniProt Q16620); experiment: BDNF^SNAP labelling of transfected HEK293T cells; type: binding; conditions: labelled with SNAP-Surface647
T3 construct: expressed in transfected cells; host or cells: HEK293T
T3 sequence (Q16620 32-822, species assumed): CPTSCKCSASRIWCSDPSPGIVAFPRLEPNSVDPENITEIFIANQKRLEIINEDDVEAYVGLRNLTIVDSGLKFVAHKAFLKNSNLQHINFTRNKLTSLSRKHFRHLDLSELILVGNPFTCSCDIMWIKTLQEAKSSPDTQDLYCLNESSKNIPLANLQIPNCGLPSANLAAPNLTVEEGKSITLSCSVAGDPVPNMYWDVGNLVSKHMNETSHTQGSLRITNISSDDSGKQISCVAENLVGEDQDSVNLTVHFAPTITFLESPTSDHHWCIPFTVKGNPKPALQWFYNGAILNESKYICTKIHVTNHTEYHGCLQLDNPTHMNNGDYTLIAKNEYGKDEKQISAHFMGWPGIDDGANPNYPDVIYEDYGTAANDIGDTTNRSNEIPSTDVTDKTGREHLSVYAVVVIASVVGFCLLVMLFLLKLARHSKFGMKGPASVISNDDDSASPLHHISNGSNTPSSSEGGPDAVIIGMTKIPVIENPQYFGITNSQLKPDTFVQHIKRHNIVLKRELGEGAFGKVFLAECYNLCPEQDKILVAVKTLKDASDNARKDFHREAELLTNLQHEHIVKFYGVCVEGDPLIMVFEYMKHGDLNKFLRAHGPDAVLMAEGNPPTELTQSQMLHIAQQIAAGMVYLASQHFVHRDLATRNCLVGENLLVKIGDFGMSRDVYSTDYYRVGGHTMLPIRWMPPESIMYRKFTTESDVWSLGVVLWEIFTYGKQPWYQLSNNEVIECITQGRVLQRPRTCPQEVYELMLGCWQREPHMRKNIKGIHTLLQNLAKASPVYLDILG
Excerpt: as §1

TrkC/p75 = target: T4, TrkC/p75 (Homo sapiens, UniProt Q16288); experiment: BDNF^SNAP labelling of transfected HEK293T cells; type: binding; conditions: labelled with SNAP-Surface647
T4 construct: expressed in transfected cells; host or cells: HEK293T
T4 sequence (Q16288 32-839, species assumed): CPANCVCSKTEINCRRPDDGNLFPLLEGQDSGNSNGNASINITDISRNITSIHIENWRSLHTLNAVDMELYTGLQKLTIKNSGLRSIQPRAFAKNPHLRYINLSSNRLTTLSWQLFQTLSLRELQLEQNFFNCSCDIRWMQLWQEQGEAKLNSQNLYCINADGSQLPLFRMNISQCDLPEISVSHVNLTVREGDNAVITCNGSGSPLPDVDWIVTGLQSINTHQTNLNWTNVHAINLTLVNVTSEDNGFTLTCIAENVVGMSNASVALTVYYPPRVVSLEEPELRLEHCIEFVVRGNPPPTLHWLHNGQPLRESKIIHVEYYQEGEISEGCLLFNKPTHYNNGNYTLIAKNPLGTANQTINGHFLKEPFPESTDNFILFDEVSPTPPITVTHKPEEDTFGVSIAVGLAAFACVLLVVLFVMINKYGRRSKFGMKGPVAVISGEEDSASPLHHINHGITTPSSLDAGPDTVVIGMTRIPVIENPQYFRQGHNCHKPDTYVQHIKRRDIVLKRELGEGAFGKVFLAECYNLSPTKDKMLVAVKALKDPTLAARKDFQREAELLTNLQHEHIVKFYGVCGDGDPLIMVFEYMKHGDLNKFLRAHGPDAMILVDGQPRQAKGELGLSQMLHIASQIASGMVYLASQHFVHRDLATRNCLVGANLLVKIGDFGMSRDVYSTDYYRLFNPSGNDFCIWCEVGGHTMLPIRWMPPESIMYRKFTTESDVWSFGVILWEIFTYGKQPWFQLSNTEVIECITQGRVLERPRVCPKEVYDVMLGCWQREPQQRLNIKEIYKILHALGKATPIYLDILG
Excerpt: as §1

primary keratinocytes = experiment: In-vitro photo-ablation of primary keratinocytes (propidium iodide staining); type: cell-based, mouse; conditions: near infra-red light, 24 hours after
Description: 1 μM IL31^SNAP and 3 μM BG-IR700 were coupled for 1 hour at 37° C. The coupling reaction was applied for 10 minutes at 37° C. on primary wild type and IL31RA^−/− keratinocytes. Cells were then exposed to near infra-red light (680 nm) at 40 J/cm^2 for 2 minutes. 24 hours after light exposure cell death was assessed by Propidium iodide (PI) staining (Invitrogen #P3566) and cells were imaged with an epifluorescent microscope.

[2] = system: IL31 evoked scratching behavior; experiment: Scratching during three days of IL31^SNAP-IR700 injection and illumination; conditions: injected three consecutive days and skin illuminated
[3] = system: IL31 receptor expressing cells; experiment: In-vivo photo-ablation of skin, TUNEL assay; parameters: species or system mouse; conditions: IL31RA^−/− mice; injection and near infrared light
[4] = system: acute itch evoked by IL31, histamine, chloroquine or LY344864; experiment: Pruritogen evoked scratching after photoablation; type: in vivo, mouse
Description: To characterize IL31^K138A-SNAP mediated photoablation in vivo, the inventors first tested its efficacy at alleviating IL31 provoked itch. Mice were treated for three consecutively days with IL31^K138A-SNAP-IR700 and the skin was illuminated with near-IR light. Strikingly, IL31-induced scratching behavior was abolished in these animals (FIG. 2f), and this persisted throughout an 8 week observation period (Supplementary FIG. 2l). […] The inventors next tested the effects of photoablation on scratching provoked by other acutely applied pruritogens. […] Finally, to assess the specificity of photoablation to itch sensation, the inventors examined other sensory modalities after treatment.

IL31RA expressing cells = experiment: Cell type specificity of photo-ablation in skin; type: in vivo
[5] = system: Calcipotriol model of atopic dermatitis; experiment: Calcipotriol model of atopic dermatitis
mechanical sensitivity = experiment: Von Frey test after photoablation in the hind paw; type: in vivo, mouse
Description: Mice were habituated on an elevated platform with a mesh floor for 30 minutes. The plantar side of the hind paw was stimulated with calibrated von-Frey filaments (North coast medical #NC12775-99) to assess baseline levels of mechanical sensitivity. The stimulation was then repeated at the 3rd day after the last photoablation performed on the same paw considered for the baseline. As a control group, the animals were injected but not illuminated. The 50% paw withdrawal thresholds were calculated using the Up-Down method (26).

thermal sensitivity = experiment: Hot plate test after photoablation in the hind paw; type: in vivo, mouse
Description: Mice were injected for three consecutive days with […] coupled with BG-IR700 with or without near IR light illumination. 3 days after the last injection, mice were placed on top of a hot plate (Ugo Basile #35150) that was preset to 52° C. and the latency to response as distinguished by flicking or licking of the hind paw was observed. In order to avoid injury to the mice, a cutoff of 30 seconds was set.

[6] = after photoablation with near-IR light
[7] = prevention: injection and near IR illumination 3 days prior to Calcipotriol
[8] = rescue: subcutaneous injection and near IR light after 7 days Calcipotriol
[9] = topical application in water-in-oil micro-emulsion, near IR light

Sequence of TrkB (Q16620 32-822, species assumed): as the sequence (Q16620 32-822, species assumed) above
Sequence of TrkC (Q16288 32-839, species assumed): as the sequence (Q16288 32-839, species assumed) above

Molecule: NGF^SNAP: recombinant NGF^SNAP protein
- binding to TrkC cells (TrkC): not TrkB or TrkC
- binding to TrkB cells (TrkB): not TrkB or TrkC
- mechanical hypersensitivity provoked by the ligand (pain signaling (TrkA)): strong sensitizing effect; also recorded: induces mechanical hypersensitivity

B1: BDNF^SNAP: recombinant BDNF protein with a SNAP-tag fused to its C-terminus (protein, UniProt P23560 19-247, looked up)
Neurotrophic factor BDNF …: APMKEANIRGQGGLAYPGVRTHGTLESVNGPKAGSRGLTSLADTFEHVIEELLDEDQKVRPNEENNKDADLYTSRVMLSSQVPLEPPLLFLLEEYKNYLDAANMSMRVRRHSDPARRGELSVCDSISEWVTAADKKTAVDMSGGTVTVLEKVPVSKGQLKQYFYETKCNPMGYTKEGCRGIDKRHWNSQCRTTQSYVRALTMDSKKRIGWRFIRIDTSCVCTLTIKRGR
modifications: C-terminal SNAP tag
notes: recombinant BDNF protein with a SNAP-tag fused to its C-terminus
- overlap between BDNF^SNAP and TrkBCreERT2 positive cells [1]: > 95%
- binding to HEK293T cells expressing TrkA/p75 (TrkA/p75): did not bind
- binding to HEK293T cells expressing TrkB/p75 (TrkB/p75): remarkable selectivity for its cognate receptor complex TrkB/p75
- binding to HEK293T cells expressing TrkC/p75 (TrkC/p75): did not bind

B2: IL31^SNAP-IR700: IL31^SNAP conjugated in vitro to benzylguanine modified IRDye®700DX phthalocyanine (conjugate)
chain: TCSLSFGAPISKEDLRTTIDLLKQESQDLYNNYSIKQASGMSADESIQLPCFSLDREALTNISVIIAHLEKVKVLSENTVDTSWVIRWLTNISCFNPLNLNISVPGNTDESYDCKVFVLTVLKQFSNCMAELQAKDNTTC
modifications: left off: small tags and cut ends
notes: IL31^SNAP conjugated in vitro to benzylguanine modified IRDye®700DX phthalocyanine
- cell death after illumination (primary keratinocytes; IL31RA^−/− keratinocytes): not evident
- cell death after illumination (primary keratinocytes; wild type keratinocytes): substantial cell death
- scratching bouts [2]: progressive decrease in scratching bouts
- TUNEL positive apoptotic cells in skin [3]: largely absent

B3: IL31^K138A-SNAP-IR700 (conjugate)
chain: TCSLSFGAPISKEDLRTTIDLLKQESQDLYNNYSIKQASGMSADESIQLPCFSLDREALTNISVIIAHLEKVKVLSENTVDTSWVIRWLTNISCFNPLNLNISVPGNTDESYDCAVFVLTVLKQFSNCMAELQAKDNTTC
modifications: left off: small tags and cut ends
- LY344864 evoked itch [4, 6]: no significant effect
- chloroquine evoked itch [4, 6]: no significant effect
- histamine evoked itch [4, 6]: no significant effect
- IL31-evoked scratching ([4]; injected but not illuminated (control)): no reduction in IL31-evoked scratching
- IL31-induced scratching behavior ([4]; three consecutive days treatment with near-IR light): abolished
- persistence of abolished IL31-induced scratching ([4]; with near-IR light, observation period): ≥ 8 week
- effect of photo-ablation on other cell types (IL31RA expressing cells): does not affect other cell types such as keratinocytes or epidermal Langerhans cells
- development of dermatitis-like symptoms ([5]; prevention: identical experiments in the absence of near IR illumination): normal development of dermatitis-like symptoms
- development of atopic dermatitis-like indicators [5, 7]: completely abolished the development of all indicators
- scratching behavior [5, 7]: remained at baseline levels
- skin appearance [5, 7]: skin appeared healthy and typical features of dermatitis such as redness and scaling were entirely absent
- disease indicators of established dermatitis ([5]; rescue: after 7 days Calcipotriol, subcutaneous injection and near IR light three days, over the course of 1 week): rescue of all disease indicators
- scratching behavior [5, 8]: returned to baseline levels
- skin thickness, morphology and structure [5, 8]: became indistinguishable from healthy mice
- reversal of dermatitis-like symptoms ([5]; rescue: without subsequent near IR illumination (control)): not evident
- scratching behavior [5, 9]: return to baseline levels of scratching behavior
- skin structure and histology [5, 9]: normalization of skin structure and histology
- Calcipotriol provoked dermatitis-like symptoms ([5]; topical application in water-in-oil micro-emulsion, near IR light 20 minutes later): both prevented and reversed Calcipotriol provoked dermatitis-like symptoms
- mechanical sensitivity (von Frey filaments) (mechanical sensitivity): no difference in response properties
- thermal sensitivity (hot plate test) (thermal sensitivity): no difference in response properties

Reference: patent US20190184015A1, “IRRADIATION TREATMENT OF NEUROLOGICAL SENSATIONS BY PHOTOABLATION” (European Molecular Biology Laboratory, priority 2016, published 2019)
